Laboratory results taken from publication PMC4363726 (Molecules and Cells, 2015).

T1: AGL15-GST (Arabidopsis thaliana, UniProt Q38847 1-268)
T1 sequence: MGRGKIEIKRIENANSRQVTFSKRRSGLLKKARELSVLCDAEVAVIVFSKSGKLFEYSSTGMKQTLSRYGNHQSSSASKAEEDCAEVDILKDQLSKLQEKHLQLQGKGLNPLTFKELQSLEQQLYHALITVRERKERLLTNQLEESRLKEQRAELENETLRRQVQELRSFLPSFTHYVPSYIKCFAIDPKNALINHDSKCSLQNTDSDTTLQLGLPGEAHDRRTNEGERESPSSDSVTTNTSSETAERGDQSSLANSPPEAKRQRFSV

T2: AGL15-His (Arabidopsis thaliana, UniProt Q38847 1-268)
T2 sequence (looked up): T1 sequence

B1: miR156a NC (dsDNA)
DNA 1: TAAGAGAGATAAAGAAAGCGACAAGAGCCA
DNA 2: TGGCTCTTGTCGCTTTCTTTATCTCTCTTA
B2: miR156a CArG I (dsDNA)
DNA 1: TGGTGAAAAACAATTAATAGAAAATTAATT
DNA 2: AATTAATTTTCTATTAATTGTTTTTCACCA
B3: miR156c NC (dsDNA)
DNA 1: TTCAGACATCTGTCCCATTGCATGTAAGAG
DNA 2: CTCTTACATGCAATGGGACAGATGTCTGAA
B4: miR156a CArG III (dsDNA)
DNA 1: ATAATAATAATCTAATTAAAGGAGATGAGA
DNA 2: TCTCATCTCCTTTAATTAGATTATTATTAT
B5: miR156c CArG I (dsDNA)
DNA 1: AAAAAAATTGCTATTTTTTGAAAATGTTAC
DNA 2: GTAACATTTTCAAAAAATAGCAATTTTTTT
B6: miR156c CArG II (dsDNA)
DNA 1: TGAATTAATTCTTAAAATTGTGAAATAATT
DNA 2: AATTATTTCACAATTTTAAGAATTAATTCA
B7: miR156a CArG II (dsDNA)
DNA 1: ATATATCTTCCATAATTTTGCAAGTCTTTA
DNA 2: TAAAGACTTGCAAAATTATGGAAGATATAT
B8: GST-AGL18 (natural protein, Arabidopsis thaliana, UniProt Q9M2K8 1-256, looked up)
chain: MGRGRIEIKKIENINSRQVTFSKRRNGLIKKAKELSILCDAEVALIIFSSTGKIYDFSSVCMEQILSRYGYTTASTEHKQQREHQLLICASHGNEAVLRNDDSMKGELERLQLAIERLKGKELEGMSFPDLISLENQLNESLHSVKDQKTQILLNQIERSRIQEKKALEENQILRKQVEMLGRGSGPKVLNERPQDSSPEADPESSSSEEDENDNEEHHSDTSLQLGLSSTGYCTKRKKPKIELVCDNSGSQVASD
B9: miR156c CArG III (dsDNA)
DNA 1: TTGTCGTTGCCGTTTATAGGTTATGAGATT
DNA 2: AATCTCATAACCTATAAACGGCAACGACAA
B10: miR156a CArG IV (dsDNA)
DNA 1: CAAGTTCATTGCCATTTTTAGGTCTCTCTA
DNA 2: TAGAGAGACCTAAAAATGGCAATGAACTTG
B11: miR156a CArG V (dsDNA)
DNA 1: CTTTTTTTTGCTTTTTATGGTTATGTTTTT
DNA 2: AAAAACATAACCATAAAAAGCAAAAAAAAG

What follows are binders tested against T1, AGL15-GST (assay: EMSA).

Row | Binder | binding result
1 | B1 | no binding
2 | B2 | no binding
3 | B3 | no binding
4 | B4 | no binding
5 | B5 | no binding
6 | B6 | no binding
7 | B7 | no binding

Each binder was assayed against T2, AGL15-His (assay: pull-down).

Row | binding result | Binder
8 | binds | B8

The binders below were run against T1, AGL15-GST (assay: competition).

Row | Binder | binding result
9 | B9 | binds
10 | B10 | binds
11 | B11 | binds
